The values below come from the supplement of paper PMC7125110.

B1: glmS ribozyme (parent)
chain: AUAAAAGCGCCAGAACUACAGAAAUGUAGUUGACGAGGAGGAGGUUUAUCGAAUUUUCGGCGGAUGCCUCCAAA

± gives the standard error. Variants at the floor of the assay were thinned out. Some results are limits rather than exact numbers.

Holding throughout (conditions): with glucosamine-6-phosphate
The variants in series [1] derive from B1. In words: self-cleavage kobs at 40 uM GlcN6P; higher = faster cleavage; RNA array. In outline: (§1)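 Glucosamine-6-phosphate in HEPES/KCl/Mg(OAc)2 buffer, at 40 μM to 10 mM, was flowed over barcoded ribozyme variants transcribed in situ by E. coli RNA polymerase on sequenced MiSeq chips. Tracking was through a hybridised Cy3 probe at 37 °C. kobs, kcat and KM came from exponential decay fits and weighted Michaelis–Menten fits of normalised per-tile medians.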

The variants in series [2] derive from B1. Briefly: self-cleavage kobs at 10000 uM GlcN6P; higher = faster cleavage; RNA array. In outline:
as §1

Variants of B1 are the subject of series [3]. In words: self-cleavage kobs at 160 uM GlcN6P; higher = faster cleavage; RNA array. In outline: as §1
In series [4] the parent is B1. In words: self-cleavage kobs at 640 uM GlcN6P; higher = faster cleavage; RNA array. In outline: as §1
The variants in series [5] derive from B1. Briefly: self-cleavage kobs at 2500 uM GlcN6P; higher = faster cleavage; RNA array. The procedure, abridged: as §1

Consider C8G A48U C71G, for which the “self-cleavage kobs at 40 uM GlcN6P” value with glucosamine-6-phosphate [1] is under 1e-05 s⁻¹. For the same variant, in the series with glucosamine-6-phosphate [2], the “self-cleavage kobs at 10000 uM GlcN6P” value was under 1e-05 s⁻¹.
With A6U G9U, the “self-cleavage kobs at 40 uM GlcN6P” value with glucosamine-6-phosphate [1] was under 1e-05 s⁻¹. For the same variant, the “self-cleavage kobs at 160 uM GlcN6P” value with glucosamine-6-phosphate [3] is under 1e-05 s⁻¹. In addition, the “self-cleavage kobs at 640 uM GlcN6P” value in the series with glucosamine-6-phosphate [4] is under 1e-05 s⁻¹. In addition, the “self-cleavage kobs at 2500 uM GlcN6P” value with glucosamine-6-phosphate [5] is under 1e-05 s⁻¹.
For the variant C11U C61G U69C, in the series with glucosamine-6-phosphate [1], the “self-cleavage kobs at 40 uM GlcN6P” value stood at 9.12e-05 ± 2.3e-05 s⁻¹. Besides, the “self-cleavage kobs at 10000 uM GlcN6P” value in the series with glucosamine-6-phosphate [2] was 4.04e-05 ± 1.7e-05 s⁻¹.
With G38U A42C, in the series with glucosamine-6-phosphate [1], the “self-cleavage kobs at 40 uM GlcN6P” value was under 1e-05 s⁻¹. For the same variant, the “self-cleavage kobs at 160 uM GlcN6P” value in the series with glucosamine-6-phosphate [3] was under 1e-05 s⁻¹. Also, the “self-cleavage kobs at 10000 uM GlcN6P” value in the series with glucosamine-6-phosphate [2] was under 1e-05 s⁻¹.
A48C G63U: the “self-cleavage kobs at 40 uM GlcN6P” value with glucosamine-6-phosphate [1] is under 1e-05 s⁻¹. Besides, in the series with glucosamine-6-phosphate [4], the “self-cleavage kobs at 640 uM GlcN6P” value was under 1e-05 s⁻¹. Moreover, the “self-cleavage kobs at 2500 uM GlcN6P” value with glucosamine-6-phosphate [5] was under 1e-05 s⁻¹. Further, the “self-cleavage kobs at 10000 uM GlcN6P” value in the series with glucosamine-6-phosphate [2] was under 1e-05 s⁻¹.
On to A33U G44C C68U, for which the “self-cleavage kobs at 40 uM GlcN6P” value in the series with glucosamine-6-phosphate [1] was under 1e-05 s⁻¹. For the same variant, in the series with glucosamine-6-phosphate [2], the “self-cleavage kobs at 10000 uM GlcN6P” value is under 1e-05 s⁻¹.
In the case of G40U A52C, the “self-cleavage kobs at 40 uM GlcN6P” value in the series with glucosamine-6-phosphate [1] is under 1e-05 s⁻¹. Also, the “self-cleavage kobs at 160 uM GlcN6P” value in the series with glucosamine-6-phosphate [3] was under 1e-05 s⁻¹.
Regarding A6U A39U G40A, the “self-cleavage kobs at 40 uM GlcN6P” value with glucosamine-6-phosphate [1] is under 1e-05 s⁻¹.
Same read-out and setting: to G7A A15C C50U C70A belongs 0.000237 ± 4.9e-05 s⁻¹.
G9C U54A: the “self-cleavage kobs at 40 uM GlcN6P” value in the series with glucosamine-6-phosphate [1] was under 1e-05 s⁻¹. In the series with glucosamine-6-phosphate [3], the “self-cleavage kobs at 160 uM GlcN6P” value was under 1e-05 s⁻¹. Moreover, in the series with glucosamine-6-phosphate [2], the “self-cleavage kobs at 10000 uM GlcN6P” value is under 1e-05 s⁻¹.
In the case of G29A G43A, in the series with glucosamine-6-phosphate [1], the “self-cleavage kobs at 40 uM GlcN6P” value was under 1e-05 s⁻¹. Besides, in the series with glucosamine-6-phosphate [3], the “self-cleavage kobs at 160 uM GlcN6P” value was under 1e-05 s⁻¹. Further, the “self-cleavage kobs at 640 uM GlcN6P” value with glucosamine-6-phosphate [4] is under 1e-05 s⁻¹. Further, the “self-cleavage kobs at 2500 uM GlcN6P” value with glucosamine-6-phosphate [5] is under 1e-05 s⁻¹.
As for A36G A39G, the “self-cleavage kobs at 40 uM GlcN6P” value with glucosamine-6-phosphate [1] was under 1e-05 s⁻¹. The “self-cleavage kobs at 160 uM GlcN6P” value in the series with glucosamine-6-phosphate [3] was under 1e-05 s⁻¹. For the same variant, in the series with glucosamine-6-phosphate [4], the “self-cleavage kobs at 640 uM GlcN6P” value is under 1e-05 s⁻¹.
With A14G G35U G37U G44U C71U, the “self-cleavage kobs at 40 uM GlcN6P” value in the series with glucosamine-6-phosphate [1] is under 1e-05 s⁻¹. Besides, in the series with glucosamine-6-phosphate [5], the “self-cleavage kobs at 2500 uM GlcN6P” value is under 1e-05 s⁻¹.
As for U30G G41U C68A, the “self-cleavage kobs at 40 uM GlcN6P” value in the series with glucosamine-6-phosphate [1] was under 1e-05 s⁻¹. The “self-cleavage kobs at 10000 uM GlcN6P” value with glucosamine-6-phosphate [2] is under 1e-05 s⁻¹.
On to G38A G41C G43U, for which, in the series with glucosamine-6-phosphate [1], the “self-cleavage kobs at 40 uM GlcN6P” value is under 1e-05 s⁻¹.
As to A15C G44U C61G C67G, the “self-cleavage kobs at 40 uM GlcN6P” value with glucosamine-6-phosphate [1] was under 1e-05 s⁻¹. Moreover, the “self-cleavage kobs at 640 uM GlcN6P” value in the series with glucosamine-6-phosphate [4] was under 1e-05 s⁻¹. Further, in the series with glucosamine-6-phosphate [5], the “self-cleavage kobs at 2500 uM GlcN6P” value was under 1e-05 s⁻¹. Also, the “self-cleavage kobs at 10000 uM GlcN6P” value with glucosamine-6-phosphate [2] was under 1e-05 s⁻¹.
Turning to C34A U65A, the “self-cleavage kobs at 40 uM GlcN6P” value with glucosamine-6-phosphate [1] was under 1e-05 s⁻¹. For the same variant, the “self-cleavage kobs at 2500 uM GlcN6P” value with glucosamine-6-phosphate [5] was under 1e-05 s⁻¹. Besides, the “self-cleavage kobs at 10000 uM GlcN6P” value with glucosamine-6-phosphate [2] is under 1e-05 s⁻¹.
Turning to A6U G35U A39G C71A, the “self-cleavage kobs at 40 uM GlcN6P” value with glucosamine-6-phosphate [1] is under 1e-05 s⁻¹. The “self-cleavage kobs at 10000 uM GlcN6P” value with glucosamine-6-phosphate [2] was under 1e-05 s⁻¹.
Regarding U30A A39G, the “self-cleavage kobs at 40 uM GlcN6P” value with glucosamine-6-phosphate [1] was 0.000182 ± 2.7e-05 s⁻¹. For the same variant, the “self-cleavage kobs at 160 uM GlcN6P” value in the series with glucosamine-6-phosphate [3] stood at 0.000615 ± 0.00023 s⁻¹. In addition, the “self-cleavage kobs at 640 uM GlcN6P” value with glucosamine-6-phosphate [4] was found to be 0.00306 ± 0.0014 s⁻¹. In addition, in the series with glucosamine-6-phosphate [2], the “self-cleavage kobs at 10000 uM GlcN6P” value came out at 0.0319 ± 0.014 s⁻¹.
For the variant A36U C58G C70A, the “self-cleavage kobs at 40 uM GlcN6P” value with glucosamine-6-phosphate [1] turned out to be 8.19e-05 ± 2.5e-05 s⁻¹. In addition, the “self-cleavage kobs at 160 uM GlcN6P” value with glucosamine-6-phosphate [3] turned out to be 0.000111 ± 3.1e-05 s⁻¹. Further, the “self-cleavage kobs at 2500 uM GlcN6P” value with glucosamine-6-phosphate [5] was 4.59e-05 ± 2.3e-05 s⁻¹. Besides, the “self-cleavage kobs at 10000 uM GlcN6P” value with glucosamine-6-phosphate [2] was 5.18e-05 ± 1.5e-05 s⁻¹.
Consider A39U C70U, for which, in the series with glucosamine-6-phosphate [1], the “self-cleavage kobs at 40 uM GlcN6P” value is 0.000786 ± 6.4e-05 s⁻¹. Moreover, in the series with glucosamine-6-phosphate [3], the “self-cleavage kobs at 160 uM GlcN6P” value stood at 0.00158 ± 0.00038 s⁻¹. In addition, the “self-cleavage kobs at 640 uM GlcN6P” value in the series with glucosamine-6-phosphate [4] stood at 0.00436 ± 0.00059 s⁻¹. Further, in the series with glucosamine-6-phosphate [5], the “self-cleavage kobs at 2500 uM GlcN6P” value was found to be 0.0108 ± 0.0033 s⁻¹. Moreover, in the series with glucosamine-6-phosphate [2], the “self-cleavage kobs at 10000 uM GlcN6P” value came out at 0.0395 ± 0.0076 s⁻¹.
In the case of U30C A52C A64C, the “self-cleavage kobs at 40 uM GlcN6P” value in the series with glucosamine-6-phosphate [1] is under 1e-05 s⁻¹.
Take A6G G7C C16A G41U: the “self-cleavage kobs at 40 uM GlcN6P” value in the series with glucosamine-6-phosphate [1] was under 1e-05 s⁻¹.
For U30C G38C, the “self-cleavage kobs at 40 uM GlcN6P” value in the series with glucosamine-6-phosphate [1] is under 1e-05 s⁻¹. Moreover, the “self-cleavage kobs at 640 uM GlcN6P” value with glucosamine-6-phosphate [4] was under 1e-05 s⁻¹. Moreover, the “self-cleavage kobs at 2500 uM GlcN6P” value in the series with glucosamine-6-phosphate [5] is under 1e-05 s⁻¹.
